Paper PMC11602160, “Modulation of UPF1 catalytic activity upon interaction of SARS-CoV-2 Nucleocapsid protein with factors involved in nonsense mediated-mRNA decay”

Experiments:
[1] = biological target: Nfl (Nucleocapsid full-length) (SARS-CoV-2, UniProt P0DTC9 1-419); experiment: fluorescence anisotropy; 1 mM Mg2+; Fluorescence anisotropy: 20 mM HEPES pH 7.5, 100 mM NaCl, 1 mM MgCl2, 100 µg/ml BSA, 5 nM RNA, 25 °C, 1 h; one-site fit with Hill slope. SEC conditions not in the material; conditions: protein: recombinant; tags: His6 or His-GST fusion, cleavable (TEV/3C); chain copies: 2; label: 5' 6-FAM; single strand
UPF1 (CH-helicase core) = biological target: T1, UPF1 (CH-helicase core) (Homo sapiens, UniProt Q92900 115-352+364-925, internal_change); experiment: as above; conditions: protein: recombinant; tags: His6 or His-GST fusion, cleavable (TEV/3C); label: 5' 6-FAM; single strand
T1 sequence: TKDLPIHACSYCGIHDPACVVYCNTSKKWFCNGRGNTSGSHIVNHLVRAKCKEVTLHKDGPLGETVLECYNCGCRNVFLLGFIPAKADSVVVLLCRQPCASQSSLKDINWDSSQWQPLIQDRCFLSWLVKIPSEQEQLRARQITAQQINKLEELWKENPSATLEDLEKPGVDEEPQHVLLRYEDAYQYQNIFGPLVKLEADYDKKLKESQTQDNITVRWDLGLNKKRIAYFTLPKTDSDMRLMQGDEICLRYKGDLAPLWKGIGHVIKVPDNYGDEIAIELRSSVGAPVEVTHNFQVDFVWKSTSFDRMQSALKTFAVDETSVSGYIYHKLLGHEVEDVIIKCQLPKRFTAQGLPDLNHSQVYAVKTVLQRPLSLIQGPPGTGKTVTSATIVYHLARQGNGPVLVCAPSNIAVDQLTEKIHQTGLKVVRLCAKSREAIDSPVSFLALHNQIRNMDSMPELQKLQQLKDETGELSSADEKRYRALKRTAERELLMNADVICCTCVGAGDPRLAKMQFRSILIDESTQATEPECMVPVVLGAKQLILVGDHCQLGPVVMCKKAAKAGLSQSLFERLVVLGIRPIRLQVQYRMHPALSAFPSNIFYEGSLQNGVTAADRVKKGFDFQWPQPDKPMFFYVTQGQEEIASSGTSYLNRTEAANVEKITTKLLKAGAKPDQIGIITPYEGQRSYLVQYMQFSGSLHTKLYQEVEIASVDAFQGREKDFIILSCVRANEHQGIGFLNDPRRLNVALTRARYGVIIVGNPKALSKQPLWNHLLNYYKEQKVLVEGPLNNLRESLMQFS

UUUUUUUUUUUU (ssRNA) [U12 (12-mer poly-U RNA)]
Kd [1]: 82 nM | Kd (UPF1 (CH-helicase core)): ~50 nM
